The values below come from FireProtDB (doi:10.1006/jmbi.2001.5050).

The conditions of this series: Bacillus caldolyticus, pH 7, CD, sodium cacodylate-HCl 100 mM, reversible: yes, whole UniProt chain shown.

B1: Cold shock protein CspB wild type, P41016 (protein)
chain: MQRGKVKWFNNEKGYGFIEVEGGSDVFVHFTAIQGEGFKTLEEGQEVSFEIVQGNRGPQAANVVKL
As usually defined, the Tm is the temperature at the midpoint of the melting transition. Take B1: for the setting “25 °C, GdnHCl”, the denaturant m value came out at 1.77 kcal/mol/M, the “denaturant midpoint (higher = more stable)” value stood at 2.68 M and the unfolding free energy is 1.2 kcal/mol. Further, the unfolding free energy (70 °C, Thermal, NaCl 2 M) is 2.2 kcal/mol. Further, the unfolding free energy (70 °C, Thermal) worked out at 1.08 kcal/mol. For the same protein, where the note is “Thermal”, the Tm is 76.9 °C and the “unfolding enthalpy (van 't Hoff)” value stood at 58.6 kcal/mol.
